# Experimental data published in article PMC10702442, “Arabidopsis thaliana Phytocystatin 6 Forms Functional Oligomer and Amyloid Fibril States” (Biochemistry, 2023).
# B1: AtCYT6-NTD, the isolated N-terminal cystatin domain of AtCYT6 (domain or fragment, Arabidopsis thaliana, UniProt Q8H0X6 35-127, looked up)
# chain: ALVGGVGDVPANQNSGEVESLARFAVDEHNKKENALLEFARVVKAKEQVVAGTLHHLTLEILEAGQKKLYEAKVWVKPWLNFKELQEFKPASD
# notes: N-terminal cystatin domain of cystatin 6 of Arabidopsis thaliana; no cysteine; The limits Ala35–Asp127 are printed for the AlphaFold model named AtCYT6-NTD, on Uniprot ID Q8H0X6; pET-28a vector; also called N-terminal domain; source: E. coli BL21 (DE3), purified (Ni2+ IMAC, gel filtration)
# B2: Arabidopsis thaliana phytocystatin 6 (AtCYT6), full-length AtCYT6 lacking the N-terminal signal peptide (natural protein, UniProt Q8H0X6 35-234, looked up)
# chain: ALVGGVGDVPANQNSGEVESLARFAVDEHNKKENALLEFARVVKAKEQVVAGTLHHLTLEILEAGQKKLYEAKVWVKPWLNFKELQEFKPASDAPAITSSDLGCKQGEHESGWREVPGDDPEVKHVAEQAVKTIQQRSNSLFPYELLEVVHAKAEVTGEAAKYNMLLKLKRGEKEEKFKVEVHKNHEGALHLNHAEQHHD
# notes: Cystatin 6 (phytocystatin 6) of Arabidopsis thaliana without the N-terminal signal peptide (M1-M34); both cystatin domains and the interdomain linker with Cys138; pET-15b vector; In the functional rows on fibrils this protein stood as washed amyloid fibrils (heated at 80 °C, pH 3.0); also called cystatin 6 from A. thaliana; source: E. coli BL21 (DE3), purified (Ni2+ IMAC, gel filtration)
# B3: AtCYT6, alkylated before cross-linking (natural protein, Arabidopsis thaliana, UniProt Q8H0X6 35-234, looked up)
# chain: B2 chain
# modifications: alkylated to prevent disulfide-mediated dimerization via Cys138
# notes: As m1: cystatin 6 of Arabidopsis thaliana without the N-terminal signal peptide (M1-M34); Ala35 to Asp234 according to Uniprot ID Q8H0X6; source: E. coli BL21 (DE3), purified (Ni2+ IMAC, gel filtration), then alkylated
# What was measured:
# [1] = target: AtCYT6-CTD_(long), the C-terminal domain containing the interdomain linker at its N-terminus (Arabidopsis thaliana); assay: SEC; Superdex 75, 500 uL of protein at up to 2 mg/mL, 20 mM Tris pH 7.5, 50 mM NaCl, nonreducing, room temperature
# [2] = target: T1, Papain from Carica papaya (Carica papaya, UniProt P00784 134-345); assay: cell-based or functional assay
# T1 sequence (looked up): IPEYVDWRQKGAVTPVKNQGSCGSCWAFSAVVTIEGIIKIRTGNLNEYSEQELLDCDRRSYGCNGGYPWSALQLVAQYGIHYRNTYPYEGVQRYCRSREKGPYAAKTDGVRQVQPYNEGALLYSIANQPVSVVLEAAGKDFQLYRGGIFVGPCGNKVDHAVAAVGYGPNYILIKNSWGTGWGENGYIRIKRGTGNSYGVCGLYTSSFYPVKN
# [3] = target: the molecule itself; assay: SEC; Superdex 75, 500 uL of protein at up to 2 mg/mL, 20 mM Tris pH 7.5, 50 mM NaCl, nonreducing, room temperature
# [4] = target: the molecule itself; assay: SEC; Superdex 200, 500 uL of AtCYT6 at 2 mg/mL, 20 mM Tris pH 7.5, 50 mM NaCl, without or with 2 mM DTT, room temperature
# [5] = target: the molecule itself; assay: cross-linking; 0.175% (w/v) glutaraldehyde, protein at 0.3 mg/mL in 20 mM citric acid pH 5.5, 100 mM NaCl, room temperature, 1, 5 and 10 min, read by SDS-PAGE
molecule,measurement,setting,value
"AtCYT6-CTD_(long), the C-terminal domain containing the interdomain linker at its N-terminus (domain or fragment)",stoichiometry N,[1],2
B1,IC50 of papain inhibition in a fluorescence substrate assay: dimer peak fraction of AtCYT6-NTD against the monomer peak fraction,[2],10 fold
same,stoichiometry N,[3],2
B2,binding result,[4],binds
B3,stoichiometry N,[5],2
